Article PMC3501490 (2012)

Molecular target: T1, G6B-b dual phosphopeptide pY211/pY237 (Homo sapiens, UniProt O95866, pY211+pY237)
T1 chain: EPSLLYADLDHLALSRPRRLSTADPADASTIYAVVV
Assay: SPR

B1: SHP-1 tandem SH2 (protein)
chain: WFHRDLSGLDAETLLKGRGVHGSFLARPSRKNQGDFSLSVRVGDQVTHIRIQNSGDFYDLYGGEKFATLTELVEYYTQQQGVLQDRDGTIIHLKYPLNCSDPTSERWYHGHMSGGQAETLLQAKGEPWTFLVRESLSQPGDFVLSVLSDQPKAGPGSPLRVTHIKVMCEGGRYTVGGLETFDSLTDLVEHFKKTGIEEASGAFVYLRQPY
Kd: 35.3 nM
